“And” between values parts separate entries of the source, which are not always exact repeats. Identical values can stand only once. Like-named read-outs stand apart in the source and are kept apart here.
Legend:
[1] = target: eAβPP_(19-624), His-Patch thioredoxin fusion of the entire ectodomain of AβPP695 (82-kDa) (human) (UniProt P05067); test: SAXS
[2] = target: Aβ_(1-40) peptide; test: cross-linking
[3] = target: Aβ_(1-40) peptide; test: cross-linking; remark: listed apart in the source
[4] = target: Aβ_(1-42) peptide; test: cross-linking

| Substance | stoichiometry N (Aβ molecules per eAβPP dimer) [1] | stoichiometry N [2] | stoichiometry N [3] | stoichiometry N [4] |
| --- | --- | --- | --- | --- |
| Aβ_(1-40) peptide | 8 | 12 and 18 | 2 |  |
| Aβ_(1-42) peptide | 6 |  |  | 3 |

Source: article PMC4001850
